For the series, the target named is T1, topo VI H2TH-EEE (Methanosarcina mazei, UniProt Q8PUB7;Q8PUB8 1-369;1-621, R263E;K268E;K308E).
T1 sequence 1: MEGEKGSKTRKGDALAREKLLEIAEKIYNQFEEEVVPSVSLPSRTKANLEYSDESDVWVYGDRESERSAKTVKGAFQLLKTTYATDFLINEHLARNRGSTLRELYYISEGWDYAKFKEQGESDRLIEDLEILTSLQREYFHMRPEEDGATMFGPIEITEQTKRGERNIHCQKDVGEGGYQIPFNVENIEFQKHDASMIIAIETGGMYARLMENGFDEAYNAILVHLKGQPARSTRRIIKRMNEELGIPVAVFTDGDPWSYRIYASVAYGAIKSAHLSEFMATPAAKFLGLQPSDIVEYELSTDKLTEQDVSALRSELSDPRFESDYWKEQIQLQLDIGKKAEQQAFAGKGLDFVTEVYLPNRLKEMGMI
T1 sequence 2: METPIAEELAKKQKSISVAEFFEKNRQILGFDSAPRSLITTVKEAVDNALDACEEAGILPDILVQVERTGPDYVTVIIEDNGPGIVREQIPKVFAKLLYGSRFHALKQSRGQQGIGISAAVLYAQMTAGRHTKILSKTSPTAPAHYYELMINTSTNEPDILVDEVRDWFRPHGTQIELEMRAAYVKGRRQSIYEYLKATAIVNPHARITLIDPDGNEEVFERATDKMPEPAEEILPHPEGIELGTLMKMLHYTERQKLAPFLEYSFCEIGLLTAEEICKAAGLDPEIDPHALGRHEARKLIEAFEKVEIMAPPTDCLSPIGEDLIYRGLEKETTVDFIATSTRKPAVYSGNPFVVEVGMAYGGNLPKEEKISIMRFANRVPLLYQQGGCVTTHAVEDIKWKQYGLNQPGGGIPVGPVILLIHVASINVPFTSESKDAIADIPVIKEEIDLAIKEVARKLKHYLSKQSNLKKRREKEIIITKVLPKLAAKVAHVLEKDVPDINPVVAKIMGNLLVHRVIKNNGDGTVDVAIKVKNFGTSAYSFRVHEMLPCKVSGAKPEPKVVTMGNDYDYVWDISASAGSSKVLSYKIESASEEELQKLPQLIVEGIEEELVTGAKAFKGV
The series is described as follows: fluorescence anisotropy; Hill h 1.6; FA: 20 nM probe, 50 mM K-glutamate, 20 mM HEPES-KOH pH 7.5, 10 mM MgCl2, 5% glycerol, 1 mM TCEP, 0.1 mg/mL BSA; incubated on ice, read at ambient temperature; competition with 100 nM enzyme. The conditions noted are these: protein: recombinant; tags: N-terminal His6-TEV on Top6B, removed; chain copies: 2;2; label: 5'-FAM strand 1; blunt. In general terms: Fluorescence polarisation rises when a labelled molecule tumbles more slowly, as on binding a larger partner.

In article PMC5922973, “Topoisomerase VI senses and exploits both DNA crossings and bends to facilitate strand passage” (eLife, 2018) one finds Kd data, which are given here for one molecule.

B1: 40 bp duplex (dsDNA)
DNA 1: CTATTGAAAAAGGAAGAGTATGAGTATTCAACATTTCCGC
DNA 2: GCGGAAATGTTGAATACTCATACTCTTCCTTTTTCAATAG
Broadly, the Kd is the constant that tells how readily two partners part at equilibrium. With B1, the Kd worked out at 45 ± 2 nM.
